In PMC3325216:

Columns and labels:
Assay in all cases: ELISA; wt or alanine-mutant E2 from 293T lysate captured by GNA on microtiter plates, amount normalised by CBH-17 binding; CD81-LEL added at 20 µg/ml; bound CD81-LEL detected with anti-CD81; percent relative to wt
[1] = biological target: H77C E1E2 mutant K446A (hepatitis C virus genotype 1a, isolate H77C)
[2] = biological target: H77C E1E2 mutant Y443A (hepatitis C virus genotype 1a, isolate H77C)
[3] = biological target: H77C E1E2 mutant N428A (hepatitis C virus genotype 1a, isolate H77C)

Question: For “CD81 large extracellular loop fused to glutathione S-transferase (from UniProt P60033 1-236) (domain or fragment)”, which percent CD81 binding relative to wt [1] is on record?
Answer: 83%

Question: What about the percent CD81 binding relative to wt [2] of the same substance?
Answer: 20%

Question: And the percent CD81 binding relative to wt [3]?
Answer: 10%
